Test results from US10995119B2, “Peptide exhibiting hydrolytic activity and use thereof” (Okinawa Institute of Science and Technology School …, priority 2016, dated 2021).

Assays:
[1] = target: Aβ11-29 (Homo sapiens, UniProt P05067); assay: Hydrolysis activity against Aβ11-29; conditions: for degradation of Aβ-F (Aβ11-29): Example 15, peptide 0.2 mmol/l
Experimental: (§2) Further, any change in activity caused by addition of human serum albumin (HSA, Wako Pure Chemical Industries, Ltd., final concentration 0.025%) also was measured.
(§3) As substrates, Aβ42 in the form of soluble powder (authentic sample, Peptide Institute Inc.) and fragment peptides thereof, namely, Aβ1-20, Aβ11-29, and soluble Aβ28-42, were used. […] In the case of MS analysis, the MS analysis was performed after applying 20 μl of the reaction solution to HPLC and collecting an aliquot of the peak.
As a substrate, Aβ11-29, which is a fragment peptide of Aβ42, was used. […] In the case of MS analysis, the MS analysis was performed after applying 20 μl of the reaction solution after the reaction for 6 days to HPLC and collecting an aliquot of the peak.
(§4) The present experiment examined activity against Aβ-Fs in Example 7.
The reaction solution V shown in FIG. 52 was incubated at 37° C. for a predetermined time, and autodigestion of ANA-YA4 (YRMI) and cleavage of Aβ11-29 were examined.
A reaction solution VI shown in FIG. 52 was incubated at 37° C. for a predetermined time, and cleavage of Aβ1-20 and Aβ11-29 by ANA-SA5 was examined.
(§5) As substrates, the same Aβ1-20 and Aβ11-29 as used in Example 7 were used.
The present example examined autodigestion and activity against Aβ-F of JAL 12-17 (YKGSGF) and JAL 12-16 (YKGSG). […] As a substrate, the same Aβ11-29 as used in Example 7 was used. The autodigestion was examined by causing the reaction in the same manner, except that the substrate was not added.

[2] = target: Aβ1-19 (Homo sapiens, UniProt P05067); assay: Hydrolysis activity against Aβ1-19
Experimental: The present experiment was conducted to consider an optimal concentration of a hydrolytic peptide relative to a substrate, using JAL 7-22 C19M as the hydrolytic peptide and Aβ1-19 as the substrate. The measurement of activity was performed in the same manner as in the above item (1), except that the incubation time was set to 0 days, 3 days, or 5 days.

[3] = target: SOD1 2-12 (Homo sapiens, UniProt P00441); assay: Hydrolysis activity against SOD1 2-12; format: biochemical; conditions: Example 3 (1); substrate SOD1 2-38 or SOD1 2-12
Text: (§1) In JAL 1-22 C19M and JAL 7-22 C19M, Cys residues contained in JAL form S—S bonds during a reaction, and this makes fragment analysis difficult. On this account, JAL 1-22 and JAL 7-22 were modified so as to substitute Cys residues by Met.

[4] = target: SOD1 2-38 (Homo sapiens, UniProt P00441); assay: Hydrolysis activity against SOD1 2-38; format: biochemical; conditions: Example 3 (1); substrate SOD1 2-38 or SOD1 2-12
Experimental: As a control, physiological saline (0.9 w/v %) was used instead of the buffer solution. […] Also, it is considered that physiological saline is suitable for storage of JAL before use, for example.
Next, an experiment was conducted to consider an optimal pH for activity using JAL as the hydrolytic peptide and SOD1 2-38 as a substrate.
Metal ions to be added to a reaction solution were Zn^2+, Ca^2+, Co^2+, or combinations thereof. The concentrations of the metal ions in the respective reaction solutions were as follows: 10 mmol/l for Ca^2+; and 5 μmol/l for the other metal ions.
as §1

[5] = Autodigestion of the catalytic peptide (HPLC, MS); format: biochemical
Experimental: First, to a buffer solution (Tris-HCl, pH 6.5, final concentration: 100 mmol/l), JAL (final concentration: 0.2 mmol/l) and the fragment peptide of hMMP7 (final concentration 0.05 mmol/l) were added. […] Thereafter, the reaction solution was subjected to HPLC, and the peaks of JAL and the fragment peptide of hMMP7 were examined. HPLC was performed under the following conditions.
Next, the mechanism of autodigestion was examined using various mutants of JAL as hydrolytic peptides. To a reaction solution containing each of the mutants of JAL, a protease inhibitor (trade name: Roche cOmplete, Roche) was added to cause a reaction. One tablet of the protease inhibitor was dissolved in 1 ml of Milli-Q water, and then, 50 μl of the resultant mixture was added to the reaction solution. […] As a result, the autodigestion of all the peptides subjected to the measurement was inhibited (FIG. 16).
Autodigestion in Box B was examined.
JAL-TA9 was reacted in the same manner except that a substrate was not added to examine the autodigestion of JAL-TA9.
The influence of an inhibitor on autodigestion of JAL-TA9 was examined. […] As the protease inhibitor, the serine protease inhibitor AEBSF, which inhibited the autodigestion of JAL 12-22 C19M in the item (6) in Example 4, was used.

[6] = target: Aβ28-42 (Homo sapiens, UniProt P05067); assay: Hydrolysis activity against Aβ28-42; format: biochemical; conditions: reaction solution II; 1 day, 5 days
[7] = target: Aβ1-20 (Homo sapiens, UniProt P05067); assay: Hydrolysis activity against Aβ1-20
Experimental: as §2, §3, §4, §5

[8] = target: soluble Aβ1-42 (Aβ42 authentic sample) (Homo sapiens, UniProt P05067); assay: Hydrolysis activity against soluble Aβ1-42 (authentic sample)
Experimental: as §3
Aβ42 was used as a substrate. […] In the case of MS analysis, the MS analysis was performed after applying 20 μl of the reaction solution after the reaction for 7 days to HPLC and collecting an aliquot of the peak.

[9] = target: PrP 175-189 (Homo sapiens, UniProt P04156)
[10] = reaction solution II, 1 day, 5 days
[11] = Example 15, substrate not added
[12] = Example 14, peptide 0.2 mmol/l, PBS, HSA
[13] = Example 9, chimera 0.2 mmol/l, PBS, HSA
[14] = Example 5 (1), JAL 14-18 and mutants

SOD1 2-38, sequence (P00441 2-38 limits assumed): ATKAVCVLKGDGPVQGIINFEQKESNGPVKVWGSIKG

For EKPYKGSGFRMI, the “hydrolysis activity against Aβ11-29” value ([1]; Example 3 (6)) was “exhibited activity”.
With YPEKPYKGSGFRCIHI [JAL 7-22] the “hydrolysis activity against Aβ1-19” value ([2]; high peptide concentration) was “lowered”, the “hydrolysis activity against Aβ1-19” value ([2]; substrate:peptide 1:1 (0.05 mmol/l) and 1:4 (0.2 mmol/l), 3 or 5 days) was “strong activity” and the “hydrolysis activity of JAL mutants” value [3] was “exhibited hydrolysis activity”. For the same substance, the “hydrolysis activity of JAL mutants” value [4] was “exhibited hydrolysis activity”.
For SKGQAYRMI [ANA-TA9], the autodigestion ([5]; reaction solution I, 37° C.) was “autodigestion of ANA-TA9 was observed”, the “autodigestion in presence of protease inhibitor” value ([5]; reaction solution IV, 6 hours) was “inhibited by the protease inhibitor” and the “cleavage of Aβ-Fs” value [6] was “could cleave all the Aβ-Fs”. For the same substance, the “cleavage of Aβ-Fs” value [7, 10] was “could cleave all the Aβ-Fs”, the “cleavage of Aβ-Fs” value [1, 10] was “could cleave all the Aβ-Fs” and the “cleavage of Aβ42” value ([8]; authentic sample Aβ42, reaction solution III) was “could cleave Aβ42”.
For SKGQA [ANA-SA5], the “types of fragments of Aβ1-20 detected” value ([7]; reaction for 5 days) was 12 and the “types of fragments of Aβ11-29 detected” value ([1]; reaction for 5 days) was 13.
For YKGSG [JAL 12-16], the autodigestion [5, 11] was “digested themselves” and the “degradation of Aβ-F (Aβ11-29)” value ([1]; PBS, HSA) was “degraded Aβ-F”.
In the case of WIDPFEVSYQIGE [Box B Tob1 8-20], the autodigestion ([5]; Example 6, HSA added, 5 days) was “fragments suggesting the occurrence of autodigestion were observed”, the “cleavage sites in Aβ-Fs (MS)” value ([7]; Example 14) was “cleaved at a plurality of sites” and the “degradation of Aβ-Fs (HPLC)” value [7, 12] was “degraded Aβ-Fs”. For the same substance, the “cleavage sites in Aβ-Fs (MS)” value ([1]; Example 14) was “cleaved at a plurality of sites” and the “degradation of Aβ-Fs (HPLC)” value [1, 12] was “degraded Aβ-Fs”.
For “FVIFLDVKHFSPEDLTVK-AA-YKGSGFRMI (FVIFLDVKHFSPEDLTVKAAYKGSGFRMI) [chimera peptide]”, the “degradation of Aβ11-29 (HPLC)” value [1, 13] was “degraded Aβ11-29” and the “degradation of Aβ42 (HPLC)” value [8, 13] was “degraded Aβ4211-29 from Day 1”.
In the case of HSDCPSKGQAFRCIRI [BTG4 7-22], the “hydrolysis activity against PrP 175-189” value [9] was “exhibited activity”.
In the case of WVDPYEVSYRIGE [Box B BTG1 8-20], the autodigestion ([5]; Example 6, HSA added, 5 days) was “fragments suggesting the occurrence of autodigestion were observed” and the “hydrolysis activity against Aβ11-29” value ([1]; Example 6 (3)) was “exhibited activity”.
In the case of KYEGHWYPEKPYKGSGFRMIHI [JAL 1-22 C19M], the “hydrolysis activity against Aβ1-19” value ([2]; CH3OH or CH3CN 10%, 3 or 5 days) was “did not exhibit activity”, the “hydrolysis activity against Aβ1-19” value ([2]; DMSO 10%, 3 or 5 days) was “exhibited activity” and the “hydrolysis activity of JAL mutants” value [3] was “exhibited hydrolysis activity”. For the same substance, the “hydrolysis activity of JAL mutants” value [4] was “exhibited hydrolysis activity”.
In the case of AKGSGFRMI, the “hydrolysis activity against Aβ11-29” value ([1]; Example 3 (6)) was “exhibited activity”.
In the case of GSGFR, the “hydrolysis activity against Aβ1-20” value ([7]; Example 3 (2), (6)) was “exhibited activity” and the “hydrolysis activity against Aβ1-20” value [7, 14] was “strong activity”.
For YKGSGF [JAL 12-17], the autodigestion [5, 11] was “digested themselves” and the “degradation of Aβ-F (Aβ11-29)” value ([1]; PBS, HSA) was “degraded Aβ-F”.
With GSGVR the “hydrolysis activity against Aβ1-20” value [7, 14] was “strong activity”.
For YKGAGFR, the “hydrolysis activity against Aβ1-20” value ([7]; Example 3 (2), (6)) was “exhibited activity”.
